Data taken from US20230357348A1 (AstraZeneca / MedImmune, published 2023).
Starred links: 1 amine or outer side, 2 acyl side, 3 side chain; linkers in the order of their positions; H or OH if unused. Non-standard residues stand in square brackets, D forms with d. Groups on a side chain read outwards from the residue. Primed or numbered codes have the meaning given here. No end group written: not given here. *: point of attachment. C20 diacid = O=C(O)CCCCCCCCCCCCCCCCCCC(=O)*; C18 diacid = O=C(O)CCCCCCCCCCCCCCCCC(=O)*; γGlu = O=C(O)[C@H](CCC(=O)[*:2])N[*:1]; αMeF = C[C@](N)(Cc1ccccc1)C(=O)O; PEG4′ = polyethylene glycol; AEEA = NCCOCCOCC(=O)O; Aib = CC(C)(N)C(=O)O

Assays:
[1] = molecular target: human glucagon receptor (hGCGR) (human, UniProt P47871 26-477); assay: cell-based or functional assay
Chain of human glucagon receptor (hGCGR) (P47871 26-477): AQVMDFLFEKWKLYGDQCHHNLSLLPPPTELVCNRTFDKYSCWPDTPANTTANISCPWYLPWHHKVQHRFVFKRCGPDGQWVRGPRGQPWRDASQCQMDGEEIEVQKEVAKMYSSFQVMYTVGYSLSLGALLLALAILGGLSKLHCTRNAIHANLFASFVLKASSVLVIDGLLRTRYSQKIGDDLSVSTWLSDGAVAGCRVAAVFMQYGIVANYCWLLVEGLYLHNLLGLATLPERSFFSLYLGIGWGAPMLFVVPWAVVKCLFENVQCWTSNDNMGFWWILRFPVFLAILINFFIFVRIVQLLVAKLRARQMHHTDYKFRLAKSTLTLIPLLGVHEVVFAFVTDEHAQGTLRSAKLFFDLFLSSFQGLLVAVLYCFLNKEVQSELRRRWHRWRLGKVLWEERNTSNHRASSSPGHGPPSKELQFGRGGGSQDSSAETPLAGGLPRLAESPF

[2] = molecular target: human GLP-1 receptor (hGLP-1R) (human, UniProt P43220 24-463); assay: cell-based or functional assay

Binder | hGluc-R EC50 (pM) [1] [pM] | hGLP-1R EC50 (pM) [2] [pM]
H[Aib]QGTFTSDVSK[αMeF]LDSK([AEEA-AEEA-γGlu-C18 diacid])RAQDFVQWLL[Aib]T-OH (N-terminus assumed; SMILES CC(C)C[C@H](NC(=O)[C@H](Cc1c[nH]c2ccccc12)NC(=O)[C@H](CCC(N)=O)NC(=O)[C@@H](NC(=O)[C@H](Cc1ccccc1)NC(=O)[C@H](CC(=O)O)NC(=O)[C@H](CCC(N)=O)NC(=O)[C@H](C)NC(=O)[C@H](CCCNC(=N)N)NC(=O)[C@H](CCCCNC(=O)COCCOCCNC(=O)COCCOCCNC(=O)CC[C@H](NC(=O)CCCCCCCCCCCCCCCCC(=O)O)C(=O)O)NC(=O)[C@H](CO)NC(=O)[C@H](CC(=O)O)NC(=O)[C@H](CC(C)C)NC(=O)[C@](C)(Cc1ccccc1)NC(=O)[C@H](CCCCN)NC(=O)[C@H](CO)NC(=O)[C@@H](NC(=O)[C@H](CC(=O)O)NC(=O)[C@H](CO)NC(=O)[C@@H](NC(=O)[C@H](Cc1ccccc1)NC(=O)[C@@H](NC(=O)CNC(=O)[C@H](CCC(N)=O)NC(=O)C(C)(C)NC(=O)[C@@H](N)Cc1c[nH]cn1)[C@@H](C)O)[C@@H](C)O)C(C)C)C(C)C)C(=O)N[C@@H](CC(C)C)C(=O)NC(C)(C)C(=O)N[C@H](C(=O)O)[C@@H](C)O) [Peptide 40] | 123 | 29.9
H[Aib]QGTFTSDVSK[αMeF]LDSK([AEEA-AEEA-γGlu-C18 diacid])RA[Aib]DFVQWLL[Aib]T-OH (N-terminus assumed; SMILES CC(C)C[C@H](NC(=O)[C@H](Cc1c[nH]c2ccccc12)NC(=O)[C@H](CCC(N)=O)NC(=O)[C@@H](NC(=O)[C@H](Cc1ccccc1)NC(=O)[C@H](CC(=O)O)NC(=O)C(C)(C)NC(=O)[C@H](C)NC(=O)[C@H](CCCNC(=N)N)NC(=O)[C@H](CCCCNC(=O)COCCOCCNC(=O)COCCOCCNC(=O)CC[C@H](NC(=O)CCCCCCCCCCCCCCCCC(=O)O)C(=O)O)NC(=O)[C@H](CO)NC(=O)[C@H](CC(=O)O)NC(=O)[C@H](CC(C)C)NC(=O)[C@](C)(Cc1ccccc1)NC(=O)[C@H](CCCCN)NC(=O)[C@H](CO)NC(=O)[C@@H](NC(=O)[C@H](CC(=O)O)NC(=O)[C@H](CO)NC(=O)[C@@H](NC(=O)[C@H](Cc1ccccc1)NC(=O)[C@@H](NC(=O)CNC(=O)[C@H](CCC(N)=O)NC(=O)C(C)(C)NC(=O)[C@@H](N)Cc1c[nH]cn1)[C@@H](C)O)[C@@H](C)O)C(C)C)C(C)C)C(=O)N[C@@H](CC(C)C)C(=O)NC(C)(C)C(=O)N[C@H](C(=O)O)[C@@H](C)O) [Peptide 29] | 629 | 107
H[Aib]HGS[αMeF]TSDVSK[αMeF]LDSK([AEEA-AEEA-γGlu-γGlu-C20 diacid])AAQD[αMeF]VQ[Aib]IANT-NH2 [Peptide 25] | 1310 | 726
H[Aib]QGTFTSDVSK[αMeF]LDSK([AEEA-AEEA-γGlu-C18 diacid])RAQDFVQ[Aib]LVAT-OH (N-terminus assumed; SMILES CC(C)C[C@H](NC(=O)C(C)(C)NC(=O)[C@H](CCC(N)=O)NC(=O)[C@@H](NC(=O)[C@H](Cc1ccccc1)NC(=O)[C@H](CC(=O)O)NC(=O)[C@H](CCC(N)=O)NC(=O)[C@H](C)NC(=O)[C@H](CCCNC(=N)N)NC(=O)[C@H](CCCCNC(=O)COCCOCCNC(=O)COCCOCCNC(=O)CC[C@H](NC(=O)CCCCCCCCCCCCCCCCC(=O)O)C(=O)O)NC(=O)[C@H](CO)NC(=O)[C@H](CC(=O)O)NC(=O)[C@H](CC(C)C)NC(=O)[C@](C)(Cc1ccccc1)NC(=O)[C@H](CCCCN)NC(=O)[C@H](CO)NC(=O)[C@@H](NC(=O)[C@H](CC(=O)O)NC(=O)[C@H](CO)NC(=O)[C@@H](NC(=O)[C@H](Cc1ccccc1)NC(=O)[C@@H](NC(=O)CNC(=O)[C@H](CCC(N)=O)NC(=O)C(C)(C)NC(=O)[C@@H](N)Cc1c[nH]cn1)[C@@H](C)O)[C@@H](C)O)C(C)C)C(C)C)C(=O)N[C@H](C(=O)N[C@@H](C)C(=O)N[C@H](C(=O)O)[C@@H](C)O)C(C)C) [Peptide 42] | 8190 | 665
H[Aib]HGS[αMeF]TSDVSK[αMeF]LDSK([AEEA-AEEA-γGlu-C18 diacid])AAQD[αMeF]VESIANT-NH2 (N-terminus assumed; SMILES CC[C@H](C)[C@H](NC(=O)[C@H](CO)NC(=O)[C@H](CCC(=O)O)NC(=O)[C@@H](NC(=O)[C@](C)(Cc1ccccc1)NC(=O)[C@H](CC(=O)O)NC(=O)[C@H](CCC(N)=O)NC(=O)[C@H](C)NC(=O)[C@H](C)NC(=O)[C@H](CCCCNC(=O)COCCOCCNC(=O)COCCOCCNC(=O)CC[C@H](NC(=O)CCCCCCCCCCCCCCCCC(=O)O)C(=O)O)NC(=O)[C@H](CO)NC(=O)[C@H](CC(=O)O)NC(=O)[C@H](CC(C)C)NC(=O)[C@](C)(Cc1ccccc1)NC(=O)[C@H](CCCCN)NC(=O)[C@H](CO)NC(=O)[C@@H](NC(=O)[C@H](CC(=O)O)NC(=O)[C@H](CO)NC(=O)[C@@H](NC(=O)[C@](C)(Cc1ccccc1)NC(=O)[C@H](CO)NC(=O)CNC(=O)[C@H](Cc1c[nH]cn1)NC(=O)C(C)(C)NC(=O)[C@@H](N)Cc1c[nH]cn1)[C@@H](C)O)C(C)C)C(C)C)C(=O)N[C@@H](C)C(=O)N[C@@H](CC(N)=O)C(=O)N[C@H](C(N)=O)[C@@H](C)O) [Peptide 23] | 321 | 266
HSQGS[αMeF]TSDVSK[αMeF]LDSK([γGlu-C18 diacid])AAQDFVQWIANT-NH2 (N-terminus assumed; SMILES CC[C@H](C)[C@H](NC(=O)[C@H](Cc1c[nH]c2ccccc12)NC(=O)[C@H](CCC(N)=O)NC(=O)[C@@H](NC(=O)[C@H](Cc1ccccc1)NC(=O)[C@H](CC(=O)O)NC(=O)[C@H](CCC(N)=O)NC(=O)[C@H](C)NC(=O)[C@H](C)NC(=O)[C@H](CCCCNC(=O)CC[C@H](NC(=O)CCCCCCCCCCCCCCCCC(=O)O)C(=O)O)NC(=O)[C@H](CO)NC(=O)[C@H](CC(=O)O)NC(=O)[C@H](CC(C)C)NC(=O)[C@](C)(Cc1ccccc1)NC(=O)[C@H](CCCCN)NC(=O)[C@H](CO)NC(=O)[C@@H](NC(=O)[C@H](CC(=O)O)NC(=O)[C@H](CO)NC(=O)[C@@H](NC(=O)[C@](C)(Cc1ccccc1)NC(=O)[C@H](CO)NC(=O)CNC(=O)[C@H](CCC(N)=O)NC(=O)[C@H](CO)NC(=O)[C@@H](N)Cc1c[nH]cn1)[C@@H](C)O)C(C)C)C(C)C)C(=O)N[C@@H](C)C(=O)N[C@@H](CC(N)=O)C(=O)N[C@H](C(N)=O)[C@@H](C)O) [Peptide 3] | 149 | 69
H[Aib]QGTFTSDYSK[αMeF]LDSK([AEEA-AEEA-γGlu-C18 diacid])RAQDFVQWLV[PEG4′]-NH2 [Peptide 41] | 5740 | 663
H[Aib]HGS[αMeF]TSDVSK[αMeF]LDSK([AEEA-AEEA-γGlu-C18 diacid])AAQD[αMeF]VQ[Aib]IANT-NH2 (N-terminus assumed; SMILES CC[C@H](C)[C@H](NC(=O)C(C)(C)NC(=O)[C@H](CCC(N)=O)NC(=O)[C@@H](NC(=O)[C@](C)(Cc1ccccc1)NC(=O)[C@H](CC(=O)O)NC(=O)[C@H](CCC(N)=O)NC(=O)[C@H](C)NC(=O)[C@H](C)NC(=O)[C@H](CCCCNC(=O)COCCOCCNC(=O)COCCOCCNC(=O)CC[C@H](NC(=O)CCCCCCCCCCCCCCCCC(=O)O)C(=O)O)NC(=O)[C@H](CO)NC(=O)[C@H](CC(=O)O)NC(=O)[C@H](CC(C)C)NC(=O)[C@](C)(Cc1ccccc1)NC(=O)[C@H](CCCCN)NC(=O)[C@H](CO)NC(=O)[C@@H](NC(=O)[C@H](CC(=O)O)NC(=O)[C@H](CO)NC(=O)[C@@H](NC(=O)[C@](C)(Cc1ccccc1)NC(=O)[C@H](CO)NC(=O)CNC(=O)[C@H](Cc1c[nH]cn1)NC(=O)C(C)(C)NC(=O)[C@@H](N)Cc1c[nH]cn1)[C@@H](C)O)C(C)C)C(C)C)C(=O)N[C@@H](C)C(=O)N[C@@H](CC(N)=O)C(=O)N[C@H](C(N)=O)[C@@H](C)O) [Peptide 24] | 101 | 82.8
H[Aib]QGTFTSDVSK[αMeF]LDSK([AEEA-AEEA-γGlu-C18 diacid])RAQDFVRWLLE[Aib]G-OH (N-terminus assumed; SMILES CC(C)C[C@H](NC(=O)[C@H](Cc1c[nH]c2ccccc12)NC(=O)[C@H](CCCNC(=N)N)NC(=O)[C@@H](NC(=O)[C@H](Cc1ccccc1)NC(=O)[C@H](CC(=O)O)NC(=O)[C@H](CCC(N)=O)NC(=O)[C@H](C)NC(=O)[C@H](CCCNC(=N)N)NC(=O)[C@H](CCCCNC(=O)COCCOCCNC(=O)COCCOCCNC(=O)CC[C@H](NC(=O)CCCCCCCCCCCCCCCCC(=O)O)C(=O)O)NC(=O)[C@H](CO)NC(=O)[C@H](CC(=O)O)NC(=O)[C@H](CC(C)C)NC(=O)[C@](C)(Cc1ccccc1)NC(=O)[C@H](CCCCN)NC(=O)[C@H](CO)NC(=O)[C@@H](NC(=O)[C@H](CC(=O)O)NC(=O)[C@H](CO)NC(=O)[C@@H](NC(=O)[C@H](Cc1ccccc1)NC(=O)[C@@H](NC(=O)CNC(=O)[C@H](CCC(N)=O)NC(=O)C(C)(C)NC(=O)[C@@H](N)Cc1c[nH]cn1)[C@@H](C)O)[C@@H](C)O)C(C)C)C(C)C)C(=O)N[C@@H](CC(C)C)C(=O)N[C@@H](CCC(=O)O)C(=O)NC(C)(C)C(=O)NCC(=O)O) [Peptide 31] | 56.8 | 41.3
